Series [1] deals with the molecule itself. The series is described as follows: sucrose density gradient centrifugation + SEC.
Series [2] concerns the molecule itself. The series is described as follows: BLI. Background: BLI is a label-free optical method that tracks binding on a fibre tip over time.
Series [3] deals with the molecule itself. The series is described as follows: BLI. This is another data set of the same source.

Numbering of substitutions follows the chain as printed. In names and notes the source's numbering stands. Read-outs that look alike come from different tables or passages of the source.

B1: Thioredoxin-UgtP fusion protein (wild type) (enzyme, B. subtilis, UniProt P54166 1-382, looked up)
chain: MNTNKRVLILTANYGNGHVQVAKTLYEQCVRLGFQHVTVSNLYQESNPIVSEVTQYLYLKSFSIGKQFYRLFYYGVDKIYNKRKFNIYFKMGNKRLGELVDEHQPDIIINTFPMIVVPEYRRRTGRVIPTFNVMTDFCLHKIWVHENVDKYYVATDYVKEKLLEIGTHPSNVKITGIPIRPQFEESMPVGPIYKKYNLSPNKKVLLIMAGAHGVLKNVKELCENLVKDDQVQVVVVCGKNTALKESLSALEAENGDKLKVLGYVERIDELFRITDCMITKPGGITLTEATAIGVPVILYKPVPGQEKENANFFEDRGAAIVVNRHEEILESVTSLLADEDTLHRMKKNIKDLHLANSSEVILEDILKESEMMTAKQKAKVLS
modifications: biotin on the copy immobilised on the biosensor (site not stated)
As to B1, the stoichiometry N (as a rule, the number of molecules, sites or subunits per partner or assembly) in series [1] was approximately 8.8 monomers. Besides, the Kd (commonly the constant that tells how readily two partners part at equilibrium) came to 69 nM in the series “BLI [2]” and 17 nM in the series “BLI [3]”.

B2: UgtP (F112A V117A E306A N309A) (enzyme, B. subtilis, UniProt P54166 1-382, looked up)
chain: B1 chain with F112A, V117A, E306A, N309A
modifications: biotin on the copy immobilised on the biosensor (site not stated)
For the protein B2, the Kd in “BLI [2]” is 21 nM; in “BLI [3]” it was 16 nM.

The values are drawn from paper PMC3480987 (Molecular microbiology, 2012).
